Experimental findings from US20230212306A1 (Daiichi Sankyo, published 2023) are described below.

In experiment [1] the target is T1, rat TLR7-Flag-His×6, expressed in Ba/F3 cells (rat, UniProt P58681 27-1050 (mouse entry)).
T1 construct: cells permeabilised with 0.1% saponin; not shown: Flag-His×6 tag added to the C-terminus
T1 chain: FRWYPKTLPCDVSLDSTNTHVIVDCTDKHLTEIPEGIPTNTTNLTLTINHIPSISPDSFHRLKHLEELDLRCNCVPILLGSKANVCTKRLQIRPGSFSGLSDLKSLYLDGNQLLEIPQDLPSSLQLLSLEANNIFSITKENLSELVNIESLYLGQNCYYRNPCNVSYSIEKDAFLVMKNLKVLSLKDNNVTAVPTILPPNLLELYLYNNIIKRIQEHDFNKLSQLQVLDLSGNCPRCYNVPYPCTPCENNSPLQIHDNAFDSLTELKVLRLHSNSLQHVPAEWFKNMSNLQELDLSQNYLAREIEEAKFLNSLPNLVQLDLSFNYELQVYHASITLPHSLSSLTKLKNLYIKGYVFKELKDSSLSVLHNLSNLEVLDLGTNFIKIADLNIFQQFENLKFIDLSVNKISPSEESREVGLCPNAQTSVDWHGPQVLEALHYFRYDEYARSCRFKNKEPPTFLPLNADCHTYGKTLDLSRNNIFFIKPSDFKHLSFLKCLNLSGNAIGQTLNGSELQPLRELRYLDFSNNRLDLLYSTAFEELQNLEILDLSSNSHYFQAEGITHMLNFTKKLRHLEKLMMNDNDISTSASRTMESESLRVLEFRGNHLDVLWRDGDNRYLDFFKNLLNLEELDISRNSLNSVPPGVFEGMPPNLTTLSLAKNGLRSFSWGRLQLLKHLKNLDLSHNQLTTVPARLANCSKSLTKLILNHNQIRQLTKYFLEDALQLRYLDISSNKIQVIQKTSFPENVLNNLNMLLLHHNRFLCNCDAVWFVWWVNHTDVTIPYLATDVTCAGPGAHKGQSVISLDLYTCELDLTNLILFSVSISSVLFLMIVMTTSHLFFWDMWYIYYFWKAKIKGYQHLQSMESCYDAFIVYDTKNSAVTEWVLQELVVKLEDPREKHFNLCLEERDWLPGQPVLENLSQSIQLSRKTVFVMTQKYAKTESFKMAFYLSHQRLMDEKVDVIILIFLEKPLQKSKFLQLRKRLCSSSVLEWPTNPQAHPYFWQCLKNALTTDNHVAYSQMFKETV
In words: flow cytometry (MFI) on saponin-permeabilised Ba/F3 cells expressing rat TLR7-Flag-His×6. An excerpt: (§1) The Ba/F3 cell line expressing human TLR7-Flag-His×6/human Unc93B1-HA×2 established above in 1)-1-1, the Ba/F3 cell line expressing mouse TLR7-Flag-His×6 established above in 2)-1-1, the Ba/F3 cell line expressing rat TLR7-Flag-His×6×2 established above in 2)-1-2, and the Ba/F3 cell line expressing monkey TLR7-Flag-His×6 established above in 2)-1-3 were subjected to membrane permeation with 0.1% Saponin and stained using AT01 antibody, NB7 antibody, and FAN2 antibody, and a secondary antibody, Goat anti-mouse IgG (H+L)-PE (eBioscience). The binding selectivity of each antibody was evaluated by comparing the average fluorescence intensity (MFI) based on flow cytometry analysis.
A general note: A flow cytometer gives signals particle by particle.

Experiment [2] addresses T2, human TLR7-Flag-His×6 (human TLR7 variant 2), expressed in Ba/F3 cells together with human Unc93B1-HA×2 (human, UniProt Q9NYK1 27-1049).
T2 construct: Cells were permeabilised with 0.1% saponin before staining; also called hTLR7-Flag-His×6; not shown: Flag-His×6 tag added to the C-terminus
T2 sequence: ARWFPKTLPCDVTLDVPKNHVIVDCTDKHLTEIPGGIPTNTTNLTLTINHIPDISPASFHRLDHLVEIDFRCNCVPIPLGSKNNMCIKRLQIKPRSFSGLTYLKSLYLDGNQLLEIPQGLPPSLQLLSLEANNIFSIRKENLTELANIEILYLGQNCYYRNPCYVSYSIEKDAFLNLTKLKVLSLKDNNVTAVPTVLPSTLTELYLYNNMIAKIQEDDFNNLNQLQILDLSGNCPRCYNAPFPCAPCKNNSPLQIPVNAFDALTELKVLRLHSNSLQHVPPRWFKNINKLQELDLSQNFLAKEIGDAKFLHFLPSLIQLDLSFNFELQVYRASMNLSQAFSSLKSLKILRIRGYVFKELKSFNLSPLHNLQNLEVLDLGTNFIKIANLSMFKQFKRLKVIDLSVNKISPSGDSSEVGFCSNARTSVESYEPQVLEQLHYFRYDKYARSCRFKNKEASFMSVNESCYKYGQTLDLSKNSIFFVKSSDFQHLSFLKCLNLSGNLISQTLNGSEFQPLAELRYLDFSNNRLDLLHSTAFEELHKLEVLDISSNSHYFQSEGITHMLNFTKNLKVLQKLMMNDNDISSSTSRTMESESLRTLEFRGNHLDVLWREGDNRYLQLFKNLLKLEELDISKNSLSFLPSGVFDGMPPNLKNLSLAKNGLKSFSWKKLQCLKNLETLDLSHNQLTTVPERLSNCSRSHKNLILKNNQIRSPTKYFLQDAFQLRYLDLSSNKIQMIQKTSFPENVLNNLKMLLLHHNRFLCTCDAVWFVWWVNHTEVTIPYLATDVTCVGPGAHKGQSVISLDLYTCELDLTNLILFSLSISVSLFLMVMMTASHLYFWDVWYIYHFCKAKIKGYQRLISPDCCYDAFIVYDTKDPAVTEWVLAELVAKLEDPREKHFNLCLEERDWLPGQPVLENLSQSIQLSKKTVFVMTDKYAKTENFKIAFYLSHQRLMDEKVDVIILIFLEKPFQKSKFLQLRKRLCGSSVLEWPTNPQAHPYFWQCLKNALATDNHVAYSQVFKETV
In words: flow cytometry (MFI) on saponin-permeabilised Ba/F3 cells expressing human TLR7-Flag-His×6/human Unc93B1-HA×2.
Description: as §1

B1: FAN2 antibody (antibody, IgG1, V domains shown)
VH: QVQLKESGPGLVAPSQSLSITCTVSGFSLTGYGVNWVRQPPGKGLEWLGMIWGDGSTDYNSALKSRLSIRKDNSKSQVFLKMNSLQTDDTARYYCARDKGYDGYYYAMDYWGQGTSVTVSS
VL: DIQMTQSPASLSASVGETVTITCRASENIYSYLAWYQQKQGKSPQLLVYDAKTLAEGVPSRFSGSGSGTQFSLKINSLQPEDFGSYYCQHHYGIPYTFGGGTKLEIK
notes: also called mouse anti-human TLR7 antibody (FAN2)
With B1, the figures for the binding result in experiment [1] and in experiment [2] were “no binding” and “binds”, respectively.

B2: AT01 antibody (antibody, IgG1, V domains shown)
VH: QVQLQQPGAELVKPGASVNLSCKASGYTFTNNWLHWVKQRPGRGLEWIGDIYPSNGRTNYNEQFKTKATLTVDKSSSTAYMQLSSLTSEDSAVYFCARERGYFDYWGQGTALTVSS
VL: DIQMTQSPSSLSTSLGGKVTITCKASQDINKYIAWYQHKPGKGPRLLIHYTSTLQPGIPSRFSGSGSGRDYSFSISNLEPEDIATYYCLQYDYLLTFGAGTKLELK
notes: also called mouse anti-human TLR7 antibody (AT01)
As to B2, the values for the binding result in experiment [1] and in experiment [2] were “no binding” and “binds”, respectively.

B3: NB7 antibody (antibody, IgG1, V domains shown)
VH: DVQLQESGPGLVKPSQSLSLTCTVTGYSITSDYAWNWIRQFPGNKLEWMGHISYRGNTNYNPSLKSRISITRDTSKNQFFLQLNSVTTEDTATYYCASWNYYGYVDYAMDYWGQGTSVTVSS
VL: DIQMTQTPSSLSASLGDRVTISCRASQDISNYLNWYQQKPDGTVKLLIYYTSRLHSGVPSRFSGSGSGTDYSLTINNLEQEDIATYFCQQGDTFPTFGGGTKLEIK
notes: also called mouse anti-human TLR7 antibody (NB7)
As to B3, the figures for the binding result in experiment [1] and in experiment [2] were “no binding” and “binds”, respectively.
